# Results reported in patent US20240279325A1 (Chugai, published 2024).
# Columns and labels:
# [1] = molecular target: T1, FcγRIIb extracellular domain with C-terminal His tag (human, UniProt P31994 43-217); test: SPR; KD for FcγRIIaR divided by KD for FcγRIIb
# T1 construct: extracellular domain
# T1 sequence (looked up): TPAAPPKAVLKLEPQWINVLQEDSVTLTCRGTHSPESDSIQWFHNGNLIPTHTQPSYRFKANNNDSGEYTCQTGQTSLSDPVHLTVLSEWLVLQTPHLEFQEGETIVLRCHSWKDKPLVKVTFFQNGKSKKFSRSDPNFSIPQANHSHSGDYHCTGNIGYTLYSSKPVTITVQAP
# [2] = molecular target: T2, FcγRIIa type H (allotype H131) extracellular domain with C-terminal His tag (human, UniProt P12318 34-217); test: SPR (Biacore), antibody captured, FcγR as analyte
# T2 construct: extracellular domain; also called FcγRIIaH; FcγRIIa H type
# T2 sequence (looked up): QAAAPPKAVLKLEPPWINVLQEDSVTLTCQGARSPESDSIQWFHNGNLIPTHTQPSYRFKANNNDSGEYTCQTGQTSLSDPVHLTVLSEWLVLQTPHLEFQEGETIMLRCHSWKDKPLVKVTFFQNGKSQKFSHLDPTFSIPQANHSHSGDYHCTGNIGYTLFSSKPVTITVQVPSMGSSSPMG
# [3] = molecular target: T1, FcγRIIb extracellular domain with …; test: SPR (Biacore), antibody captured, FcγR as analyte
# [4] = molecular target: T1, FcγRIIb extracellular domain with …; test: SPR; KD for FcγRIIaH divided by KD for FcγRIIb
# [5] = molecular target: T1, FcγRIIb extracellular domain with …; test: SPR; KD of IL6R-B3/IL6R-L divided by KD of the variant
# [6] = molecular target: T3, FcγRIIa type R (allotype R131) extracellular domain with C-terminal His tag (human, UniProt P12318 34-217); test: as above
# T3 construct: extracellular domain; also called FcγRIIaR; FcγRIIa R type
# T3 sequence (looked up): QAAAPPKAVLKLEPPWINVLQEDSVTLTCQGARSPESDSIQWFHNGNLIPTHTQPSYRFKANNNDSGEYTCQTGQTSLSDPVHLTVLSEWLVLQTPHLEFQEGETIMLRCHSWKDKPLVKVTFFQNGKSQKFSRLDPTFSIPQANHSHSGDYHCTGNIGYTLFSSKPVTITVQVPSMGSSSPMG
# [7] = molecular target: T4, human FcγRIIb extracellular domain with C-terminal His tag (human, UniProt P31994 43-217); test: SPR (Biacore); parent is IL6R-B3/IL6R-L
# T4 construct: extracellular domain; not shown: His tag at the C terminus
# T4 sequence (looked up): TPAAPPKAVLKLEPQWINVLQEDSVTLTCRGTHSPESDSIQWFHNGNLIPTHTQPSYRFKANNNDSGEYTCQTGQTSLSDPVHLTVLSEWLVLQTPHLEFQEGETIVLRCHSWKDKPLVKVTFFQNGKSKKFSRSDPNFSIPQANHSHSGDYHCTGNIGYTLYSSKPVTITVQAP
# [8] = molecular target: T4, human FcγRIIb extracellular domain with …; test: ratio of SPR KDs, FcγRIIaR over FcγRIIb
# [9] = molecular target: T4, human FcγRIIb extracellular domain with …; test: ratio of SPR KDs, FcγRIIaH over FcγRIIb
# [10] = molecular target: T5, human FcγRIa extracellular domain with C-terminal His tag (human, UniProt P12314 16-292); test: SPR (Biacore), antibody captured, FcγR analyte
# T5 construct: not shown: His tag at the C terminus
# T5 sequence (P12314 16-292): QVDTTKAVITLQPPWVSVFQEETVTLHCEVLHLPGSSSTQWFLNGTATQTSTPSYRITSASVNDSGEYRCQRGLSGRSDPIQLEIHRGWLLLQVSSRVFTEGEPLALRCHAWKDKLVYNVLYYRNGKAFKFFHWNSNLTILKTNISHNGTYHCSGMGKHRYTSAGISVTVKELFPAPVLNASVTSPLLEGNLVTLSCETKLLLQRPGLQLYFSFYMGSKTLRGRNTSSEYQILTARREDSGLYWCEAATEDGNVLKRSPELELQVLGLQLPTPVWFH
Binder,KD(IIaR)/KD(IIb) [1],Kd [2] [nM],Kd [3] [nM],KD(IIaH)/KD(IIb) [4],KD(IIb) OF PARENT POLYPEPTIDE/KD(IIb) OF ALTERED POLYPEPTIDE [5],KD(IIaR) OF PARENT POLYPEPTIDE/KD(IIaR) OF ALTERED POLYPEPTIDE [6],KD(IIb) of the parent polypeptide/KD(IIb) of altered polypeptide [7] [fold],KD(IIaR)/KD(IIb) [8],KD(IIaH)/KD(IIb) [9],Kd [10] [nM]
"IL6R-BP494/IL6R-L (antibody, human IgG1, kappa, name in EU numbering, copies: 2 + 2) heavy: QVQLQESGPGLVKPSETLSLTCAVSGHSISHDHAWSWVRQPPGEGLEWIGFISYSGITNYNPSLQGRVTISRDNSKNTLYLQMNSLRAEDTAVYYCARSLARTTAMDYWGEGTLVTVSSASTKGPSVFPLAPSSKSTSGGTAALGCLVKDYFPEPVTVSWNSGALTSGVHTFPAVLQSSGLYSLSSVVTVPSSSLGTQTYICNVNHKPSNTKVDKKVEPKSCDKTHTCPPCPAPELLGDDSVFLFPPKPKDTLMISRTPEVTCVVVDVAEEDGEVKFNWYVDGVEVHNAKTKPREEQDNSTYRVVSVLTVLHQDWLNGKEYKCKVSNKALPRPIEKTISKAKGQPREPQVYTLPPSRDELTKNQVSLTCLVKGFYPSDIAVEWESNGQPENNYKTTPPVLDSDGSFFLYSKLTVDKSRWQQGNVFSCSVMHEALHNHYTQESLSLSP light: not shown",38.6,54000,6.5,821,471,4.3,–,–,–,–
"IL6R-BP195/IL6R-L (antibody, human IgG1, kappa, name in EU numbering, EU numbering; copies: 2 + 2) heavy: QVQLQESGPGLVKPSETLSLTCAVSGHSISHDHAWSWVRQPPGEGLEWIGFISYSGITNYNPSLQGRVTISRDNSKNTLYLQMNSLRAEDTAVYYCARSLARTTAMDYWGEGTLVTVSSASTKGPSVFPLAPSSKSTSGGTAALGCLVKDYFPEPVTVSWNSGALTSGVHTFPAVLQSSGLYSLSSVVTVPSSSLGTQTYICNVNHKPSNTKVDKKVEPKSCDKTHTCPPCPAPDYLGDDSVFLFPPKPKDTLMISRTPEVTCVVVDVSDEDGEVKFNWYVDGVEVHNAKTKPREEQDNSTYRVVSVLTVLHQDWLNGKEYKCKVSNAALPKPIEKTISKAKGQPREPQVYTLPPSRDELTKNQVSLTCLVKGFYPSDIAVEWESNGQPENNYKTTPPVLDSDGSFFLYSKLTVDKSRWQQGNVFSCSVMHEALHNHYTQESLSLSP light: not shown",–,–,–,–,–,–,62.3,18.2,201,26
"IL6R-BP198/IL6R-L (antibody, human IgG1, kappa, name in EU numbering, EU numbering; copies: 2 + 2) heavy: QVQLQESGPGLVKPSETLSLTCAVSGHSISHDHAWSWVRQPPGEGLEWIGFISYSGITNYNPSLQGRVTISRDNSKNTLYLQMNSLRAEDTAVYYCARSLARTTAMDYWGEGTLVTVSSASTKGPSVFPLAPSSKSTSGGTAALGCLVKDYFPEPVTVSWNSGALTSGVHTFPAVLQSSGLYSLSSVVTVPSSSLGTQTYICNVNHKPSNTKVDKKVEPKSCDKTHTCPPCPAPDYLGGDSVFLFPPKPKDTLMISRTPEVTCVVVDVSDEDGEVKFNWYVDGVEVHNAKTKPREEQYNSTYRVVSVLTVLHQDWLNGKEYKCKVSNAALPKPIEKTISKAKGQPREPQVYTLPPSRDELTKNQVSLTCLVKGFYPSDIAVEWESNGQPENNYKTTPPVLDSDGSFFLYSKLTVDKSRWQQGNVFSCSVMHEALHNHYTQESLSLSP light: not shown",–,–,–,–,–,–,15.7,11,102,–
